Source: US11278600B2, “Human alpha-galactosidase variants” (Codexis, Inc., priority 2014, dated 2022)

B1: 164 (protein)
chain: LDNGLARTPTMGWLHWERFMCNLDCQEEPDSCIDEKLFMEMAELMVSEGWKDAGYEYLCIDDCWMAPQRDSEGRLQADPQRFPHGIRQLANYVHSKGLKLGIYADVGNKTCAGFPGSFGYYDIDAQTFADWGVDLLKFDGCYCDSLENLADGYKHMSLALNRTGRSIVYSCEWPLYMWPFQKPNYTEIRQYCNHWRNFADIDDSWKSIKSILDWTSFNQERIVDVAGPGGWNDPDMLVIGNFGLSWNQQVTQMALWAIMAAPLFMSNDLRHISPQAKALLQDKDVIAINQDPLGKQGYQLRQGDNFEVWERPLSGLAWAVAMINRQEIGGPRSYTIAVASLGKGVACNPACFITQLLPVKRKLGFYEWTSRLRSHINPTGTVLLQLENTMQPSKDLLL
modifications: Synthetic Polypeptide sequence of Variant No. 164 of mature Human GLA
B2: 171 (protein)
chain: LDNGLARTPTMGWLHWERFMCNLDCQEEPDSCISEKLFMEMAELMVSEGWKDAGYEYLCIDDCWMAPQRDSEGRLQADPQRFPHGIRQLANYVHSKGLKLGIYADVGNKTCAGFPGSFGYYDIDAQTFADWGVDLLKFDGCYCDSLENLADGYKHMSLALNRTGRSIVYSCEWPLYMWPFQKPNYTEIRQYCNHWRNFADIDDSWKSIKSILDWTSFNQERIVDVAGPGGWNDPDMLVIGNFGLSWNQQVTQMALWAIMAAPLFMSNDLRHISPQAKALLQDKDVIAINQDPLGKQGYQLRQGDNFEVWERPLSGLAWAVAMINRQEIGGPRSYTIAVASLGKGVACNPACFITQLLPVKRKLGFYEWTSRLRSHINPTGTVLLQLENTMQMGKDLLL
modifications: Synthetic Polypeptide sequence of Variant No. 171 of mature Human GLA
B3: 167 (protein)
chain: LDNGLARTPTMGWLHWERFMCNLDCQEEPDSCIREKLFMEMAELMVSEGWKDAGYEYLCIDDCWMAPQRDSEGRLQADPQRFPHGIRQLANYVHSKGLKLGIYADVGNKTCAGFPGSFGYYDIDAQTFADWGVDLLKFDGCYCDSLENLADGYKHMSLALNRTGRSIVYSCEWPLYMWPFQKPNYTEIRQYCNHWRNFADIDDSWKSIKSILDWTSFNQERIVDVAGPGGWNDPDMLVIGNFGLSWNQQVTQMALWAIMAAPLFMSNDLRHISPQAKALLQDKDVIAINQDPLGKQGYQLRQGDNFEVWERPLSGLAWAVAMINRQEIGGPRSYTIAVASLGKGVACNPACFITQLLPVKRKLGFYEWTSRLRSHINPTGTVLLQLENTMQMSKDLLL
modifications: Synthetic Polypeptide sequence of Variant No. 16 of mature Human GLA
B4: 168 (protein)
chain: LDNGLARTPTMGWLHWERFMCNLDCQEEPDSCISEKLFMEMAELMVSEGWKDAGYEYLCIDDCWMAPQRDSEGRLQADPQRFPHGIRQLANYVHSKGLKLGIYADVGNKTCAGFPGSFGYYDIDAQTFADWGVDLLKFDGCYCDSLENLADGYKHMSLALNRTGRSIVYSCEWPLYMWPFQKPNYTEIRQYCNHWRNFADIDDSWKSIKSILDWTSFNQERIVDVAGPGGWNDPDMLVIGNFGLSWNQQVTQMALWAIMAAPLFMSNDLRHISPQAKALLQDKDVIAINQDPLGKQGYQLRQGDNFEVWERPLSGLAWAVAMINRQEIGGPRSYTIAVASLGKGVACNPACFITQLLPVKRKLGFYEWTSRLRMHINPTGTVLLQLENTMQMSKDLLL
modifications: Synthetic Polypeptide sequence of Variant No. 168 of mature Human GLA
B5: 169 (protein)
chain: LDNGLARTPTMGWLHWERFMCNLDCQEEPDSCISEKLFMEMAELMVSEGWKDAGYEYLCIDDCWMAPQRDSEGRLQADPQRFPHGIRQLANYVHSKGLKLGIYADVGNKTCAGFPGSFGYYDIDAQTFADWGVDLLKFDGCYCDSLENLADGYKHMSLALNRTGRSIVYSCEWPLYMWPFQKPNYTEIRQYCNHWRNFADIDDSWKSIKSILDWTSFNQERIVDVAGPGGWNDPDMLVIGNFGLSWNQQVTQMALWAIMAAPLFMSNDLRHISPQAKALLQDKDVIAINQDPLGKQGYQLRQGDNFEVWERPLSGLAWAVAMINRQEIGGPRSYTIAVASLGKGVACNPACFITQLLPVKRKLGFYEWTSRLRTHINPTGTVLLQLENTMQMSKDLLL
modifications: Synthetic Polypeptide sequence of Variant No. 169 of mature Human GLA
B6: 166 (protein)
chain: LDNGLARTPTMGWLHWERFMCNLDCQEEPDSCIHEKLFMEMAELMVSEGWKDAGYEYLCIDDCWMAPQRDSEGRLQADPQRFPHGIRQLANYVHSKGLKLGIYADVGNKTCAGFPGSFGYYDIDAQTFADWGVDLLKFDGCYCDSLENLADGYKHMSLALNRTGRSIVYSCEWPLYMWPFQKPNYTEIRQYCNHWRNFADIDDSWKSIKSILDWTSFNQERIVDVAGPGGWNDPDMLVIGNFGLSWNQQVTQMALWAIMAAPLFMSNDLRHISPQAKALLQDKDVIAINQDPLGKQGYQLRQGDNFEVWERPLSGLAWAVAMINRQEIGGPRSYTIAVASLGKGVACNPACFITQLLPVKRKLGFYEWTSRLRSHINPTGTVLLQLENTRQMSKDLLL
modifications: Synthetic Polypeptide sequence of Variant No. 166 of mature Human GLA
B7: 165 (protein)
chain: LDNGLARTPTMGWLHWERFMCNLDCQEEPDSCIGEKLFMEMAELMVSEGWKDAGYEYLCIDDCWMAPQRDSEGRLQADPQRFPHGIRQLANYVHSKGLKLGIYADVGNKTCAGFPGSFGYYDIDAQTFADWGVDLLKFDGCYCDSLENLADGYKHMSLALNRTGRSIVYSCEWPLYMWPFQKPNYTEIRQYCNHWRNFADIDDSWKSIKSILDWTSFNQERIVDVAGPGGWNDPDMLVIGNFGLSWNQQVTQMALWAIMAAPLFMSNDLRHISPQAKALLQDKDVIAINQDPLGKQGYQLRQGDNFEVWERPLSGLAWAVAMINRQEIGGPRSYTIAVASLGKGVACNPACFITQLLPVKRKLGFYEWTSRLRSHINPTGTVLLQLENTMQMSKDLLL
modifications: Synthetic Polypeptide sequence of Variant No. 165 of mature Human GLA
B8: 170 (protein)
chain: LDNGLARTPTMGWLHWERFMCNLDCQEEPDSCISEKLFMEMAELMVSEGWKDAGYEYLCIDDCWMAPQRDSEGRLQADPQRFPHGIRQLANYVHSKGLKLGIYADVGNKTCAGFPGSFGYYDIDAQTFADWGVDLLKFDGCYCDSLENLADGYKHMSLALNRTGRSIVYSCEWPLYMWPFQKPNYTEIRQYCNHWRNFADIDDSWKSIKSILDWTSFNQERIVDVAGPGGWNDPDMLVIGNFGLSWNQQVTQMALWAIMAAPLFMSNDLRHISPQAKALLQDKDVIAINQDPLGKQGYQLRQGDNFEVWERPLSGLAWAVAMINRQEIGGPRSYTIAVASLGKGVACNPACFITQLLPVKRKLGFYEWTSRLRSHINPTGTVLLQLENTMQMEKDLLL
modifications: Synthetic Polypeptide sequence of Variant No. 170 of mature Human GLA

What was measured:
Format in all cases: biochemical
[1] = HTP-analysis of supernatants pretreated with base (MUGal hydrolysis); conditions: challenge at pH 7.1; activity of the variant/activity of WT GLA (SEQ ID NO: 5); yeast supernatant
In short: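 Supernatants from INVSc1 yeast expressing GLA variants (SD-Ura, 66-84 h, 30° C) were mixed with McIlvaine buffer pH 7.0-8.2 or 200 mM sodium bicarbonate pH 9.1-9.7 and held 1-18 h at 37° C. Residual activity was then measured on MUGal at pH 4.8/4.3, 37° C, 30-180 min, by fluorescence (Ex 355/Em 448 nm).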

[2] = HTP-analysis of supernatants pretreated with acid (MUGal hydrolysis); conditions: challenge at pH 4.2; activity of the variant/activity of WT GLA (SEQ ID NO: 5); yeast supernatant
In short: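 Yeast INVSc1 supernatant, GLA variants; acid challenge: McIlvaine pH 3.3-4.3, 37° C., 1-3 h. Assay: MUGal in McIlvaine pH 4.8 plus citrate pH 4.3, 37° C., 30-180 min, Na2CO3 stop, Ex 355/Em 448 nm.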

[3] = HTP-analysis of yeast culture supernatants, no challenge (MUGal hydrolysis); conditions: activity of the variant/activity of WT GLA (SEQ ID NO: 5), yeast supernatant
In short: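 GLA variants expressed in yeast INVSc1, secreted into SD-Ura broth over 66-84 h at 30° C; clarified supernatants tested without challenge. Supernatant mixed with McIlvaine buffer pH 4.8 and 2 mM MUGal (citrate/KCl, pH 4.6), 37° C for 30-180 min, carbonate-quenched, fluorescence Ex 355/Em 448 nm.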

Molecule | Relative Activity of GLA Variants After Challenge at pH 7.1 [1] | Relative Activity of GLA Variants After Challenge at pH 4.2 [2] | Relative Activity of GLA Variants After No Challenge (NC) [3]
B1 | − (− = <0.5 relative activity to WT GLA (SEQ ID NO: 5)) | − (− = <0.5 relative activity to WT GLA (SEQ ID NO: 5)) | + (+ = 0.5 to 1.5 relative activity over WT GLA (SEQ ID NO: 5))
B2 | ++ (++ = >1.5 to 2.5 relative activity over WT GLA (SEQ ID NO: 5)) | ++ (++ = >1.5 to 2.5 relative activity over WT GLA (SEQ ID NO: 5)) | ++ (++ = >1.5 to 2.5 relative activity over WT GLA (SEQ ID NO: 5))
B3 | + (+ = 0.5 to 1.5 relative activity over WT GLA (SEQ ID NO: 5)) | + (+ = 0.5 to 1.5 relative activity over WT GLA (SEQ ID NO: 5)) | + (+ = 0.5 to 1.5 relative activity over WT GLA (SEQ ID NO: 5))
B4 | ++ (++ = >1.5 to 2.5 relative activity over WT GLA (SEQ ID NO: 5)) | ++ (++ = >1.5 to 2.5 relative activity over WT GLA (SEQ ID NO: 5)) | ++ (++ = >1.5 to 2.5 relative activity over WT GLA (SEQ ID NO: 5))
B5 | ++ (++ = >1.5 to 2.5 relative activity over WT GLA (SEQ ID NO: 5)) | ++ (++ = >1.5 to 2.5 relative activity over WT GLA (SEQ ID NO: 5)) | ++ (++ = >1.5 to 2.5 relative activity over WT GLA (SEQ ID NO: 5))
B6 | + (+ = 0.5 to 1.5 relative activity over WT GLA (SEQ ID NO: 5)) | + (+ = 0.5 to 1.5 relative activity over WT GLA (SEQ ID NO: 5)) | ++ (++ = >1.5 to 2.5 relative activity over WT GLA (SEQ ID NO: 5))
B7 | − (− = <0.5 relative activity to WT GLA (SEQ ID NO: 5)) | − (− = <0.5 relative activity to WT GLA (SEQ ID NO: 5)) | + (+ = 0.5 to 1.5 relative activity over WT GLA (SEQ ID NO: 5))
B8 | ++ (++ = >1.5 to 2.5 relative activity over WT GLA (SEQ ID NO: 5)) | ++ (++ = >1.5 to 2.5 relative activity over WT GLA (SEQ ID NO: 5)) | ++ (++ = >1.5 to 2.5 relative activity over WT GLA (SEQ ID NO: 5))
